Where two headings read alike, the source gives them in different places.
Tests used:
[1] = target: T1, human ROR1 expressed on cells (MDA-MB-231, Jeko-1, PA-1, HCC1187) (human, UniProt Q01973 30-937); assay: flow cytometry on Jeko-1 cells
T1 construct: also called hROR1

[2] = target: T2, human ROR2 protein (hROR2, Kactus Biosystems, Cat. No. ROR-HM402) (human, UniProt Q01974 34-403, limits assumed); assay: ELISA, plate coated with hROR2
[3] = target: T3, human ROR1 protein (recombinant ROR1 antigen, Kactus Biosystems) (human, UniProt Q01973 30-406, limits assumed); assay: binding to ROR1 (column 'Binding to ROR1'; method not described)
[4] = target: T3, human ROR1 protein (recombinant ROR1 …); assay: BLI (Octet R8), antibody captured on AHC sensor, ROR1 antigen as analyte
[5] = target: T3, human ROR1 protein (recombinant ROR1 …); assay: as above; remark: listed apart in the source
[6] = target: T1, human ROR1 expressed on cells …; assay: flow cytometry on MDA-MB-231 cells
[7] = target: T1, human ROR1 expressed on cells …; assay: flow cytometry on MDA-MB-231 cells; remark: listed apart in the source
[8] = target: T2, human ROR2 protein (hROR2, Kactus …); assay: ELISA, plate coated with hROR2; remark: listed apart in the source
[9] = target: T1, human ROR1 expressed on cells …; assay: flow cytometry on Jeko-1 cells; remark: listed apart in the source
[10] = target: T1, human ROR1 expressed on cells …; assay: flow cytometry on PA-1 cells
[11] = target: T1, human ROR1 expressed on cells …; assay: flow cytometry on MDA-MB-231 cells; remark: listed apart in the source
[12] = target: T3, human ROR1 protein (recombinant ROR1 …); assay: BLI (Octet R8), antibody captured on AHC sensor, ROR1 antigen as analyte; remark: listed apart in the source
[13] = target: T2, human ROR2 protein (hROR2, Kactus …); assay: ELISA, plate coated with hROR2; remark: listed apart in the source
[14] = target: T3, human ROR1 protein (recombinant ROR1 …); assay: BLI (Octet R8)
[15] = target: T2, human ROR2 protein (hROR2, Kactus …); assay: ELISA, plate coated with hROR2; remark: listed apart in the source
[16] = target: T3, human ROR1 protein (recombinant ROR1 …); assay: BLI (Octet R8), antibody captured on AHC sensor, ROR1 antigen as analyte; remark: listed apart in the source
[17] = target: T1, human ROR1 expressed on cells …; assay: flow cytometry on MDA-MB-231 cells; remark: listed apart in the source
[18] = target: T3, human ROR1 protein (recombinant ROR1 …); assay: binding to ROR1 (column 'Binding to ROR1'; method not described); remark: listed apart in the source

T1 sequence (Q01973 30-937 limits assumed): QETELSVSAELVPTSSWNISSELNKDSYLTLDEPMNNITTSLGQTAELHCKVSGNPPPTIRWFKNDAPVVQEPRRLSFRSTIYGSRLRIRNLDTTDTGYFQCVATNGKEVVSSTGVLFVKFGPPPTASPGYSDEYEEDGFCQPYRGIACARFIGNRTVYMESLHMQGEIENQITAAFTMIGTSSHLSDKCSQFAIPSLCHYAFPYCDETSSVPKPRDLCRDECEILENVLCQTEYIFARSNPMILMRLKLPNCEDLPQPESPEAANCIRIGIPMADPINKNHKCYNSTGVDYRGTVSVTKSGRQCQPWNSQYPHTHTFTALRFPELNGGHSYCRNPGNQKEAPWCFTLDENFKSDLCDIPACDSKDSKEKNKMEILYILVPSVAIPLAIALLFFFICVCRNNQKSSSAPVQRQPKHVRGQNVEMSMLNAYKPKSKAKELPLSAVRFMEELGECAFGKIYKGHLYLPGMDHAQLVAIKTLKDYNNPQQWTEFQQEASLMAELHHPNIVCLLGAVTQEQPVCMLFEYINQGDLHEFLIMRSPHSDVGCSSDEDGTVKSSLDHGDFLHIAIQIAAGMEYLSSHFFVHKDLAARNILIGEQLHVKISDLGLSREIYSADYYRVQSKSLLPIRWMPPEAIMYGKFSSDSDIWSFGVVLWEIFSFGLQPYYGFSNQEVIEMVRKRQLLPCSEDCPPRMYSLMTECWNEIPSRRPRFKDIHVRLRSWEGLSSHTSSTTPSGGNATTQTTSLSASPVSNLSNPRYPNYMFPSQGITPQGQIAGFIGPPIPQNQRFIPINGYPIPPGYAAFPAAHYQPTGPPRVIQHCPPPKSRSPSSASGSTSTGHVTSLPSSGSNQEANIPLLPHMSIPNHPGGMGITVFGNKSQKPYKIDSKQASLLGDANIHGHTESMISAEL
T3 sequence (Q01973 30-406 limits assumed): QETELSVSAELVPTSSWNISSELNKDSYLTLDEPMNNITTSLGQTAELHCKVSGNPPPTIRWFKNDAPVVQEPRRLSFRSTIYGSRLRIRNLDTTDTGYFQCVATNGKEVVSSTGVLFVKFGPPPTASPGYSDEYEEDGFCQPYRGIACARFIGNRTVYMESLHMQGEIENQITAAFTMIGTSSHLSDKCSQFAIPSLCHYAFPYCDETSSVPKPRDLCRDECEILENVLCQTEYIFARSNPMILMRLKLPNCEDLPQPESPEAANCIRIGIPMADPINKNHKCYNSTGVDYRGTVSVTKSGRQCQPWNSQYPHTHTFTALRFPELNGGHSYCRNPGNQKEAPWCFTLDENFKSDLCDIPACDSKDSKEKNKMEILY
T2 sequence (Q01974 34-403 limits assumed): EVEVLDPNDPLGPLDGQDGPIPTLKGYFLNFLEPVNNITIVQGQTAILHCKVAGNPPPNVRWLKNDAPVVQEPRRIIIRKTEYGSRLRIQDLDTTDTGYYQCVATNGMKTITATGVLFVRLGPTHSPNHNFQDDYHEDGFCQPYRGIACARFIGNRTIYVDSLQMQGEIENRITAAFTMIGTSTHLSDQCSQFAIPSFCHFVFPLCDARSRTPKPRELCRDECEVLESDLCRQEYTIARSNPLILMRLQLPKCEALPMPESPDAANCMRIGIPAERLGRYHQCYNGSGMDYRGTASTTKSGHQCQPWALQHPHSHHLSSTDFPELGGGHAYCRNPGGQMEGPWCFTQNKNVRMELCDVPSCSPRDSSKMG

B1: YR-8 (antibody, human IgG1, kappa, V domains shown)
VH: QVQLQESGPGLVKPSETLSLTCTVSGFSLTRYGVHWIRQPPGKGLEWLGVIWAGGFTNYNSDLKSRLTISKDNSKNQVSLKLSSVTAADTAVYYCARRGDSYSMKYWGQGTLVTVSS
VL: EIVLTQSPATLSLSPGERATLSCSASSQVSYIHWYQQKPGQAPRPWIYETSKLASGIPARFSGSGSGTDYTLTISSLEPEDFAVYYCQQWNYPLITFGQGTKLEIKR
What does the source list for B1?
EC50 [1]: 0.005 µg/mL; binding result [2]: no binding (tested: starting from 333.33 nM); EC50 [3]: 0.01 µg/mL; Kd [4]: 18 nM; Kd [5]: 9.82 nM; EC50 [6]: 0.03 µg/mL; EC50 [7]: 0.02 µg/mL

B2: YR-8-ES (antibody, human IgG1, kappa, V domains shown)
VH: QVQLQESGPGLVKPSETLSLTCTVSGFSLTRYGVHWIRQPPGKGLEWLGVIWAGGFTNYESDLKSRLTISKDNSKNQVSLKLSSVTAADTAVYYCARRGDSYSMKYWGQGTLVTVSS
VL: EIVLTQSPATLSLSPGERATLSCSASSQVSYIHWYQQKPGQAPRPWIYETSKLASGIPARFSGSGSGTDYTLTISSLEPEDFAVYYCQQWNYPLITFGQGTKLEIKR
notes: YR-8 with N60E (Kabat) in the heavy chain; human IgG1 / kappa
Does B2 bind [8]?
Result: no binding (tested: starting from 333.33 nM)

And the EC50 [3]?
Its EC50 is 0.01 µg/mL.

What about the EC50 [9] of the same binder?
The EC50 was 0.15 nM.

What about the MFI fold [9] of the same binder?
Its MFI fold is 3.6 fold.

What about the EC50 [10] of the same binder?
Its EC50 is 0.25 nM.

What about the MFI fold [10] of the same binder?
The MFI fold was 2.6 fold.

And the Kd [4]?
Its Kd is 19 nM.

What about the EC50 [6] of the same binder?
The EC50 was 0.05 µg/mL.

B3: YR-11 (antibody, human IgG1, kappa, V domains shown)
VH: QVQLQESGPGLVKPSETLSLTCTVSGFSLTRYGVHWIRQPPGKGLEWIGVIWAGGFTNYNSALKSRVTISKDNSKNQVSLKLSSVTAADTAVYYCARRGNEYSMSYWGQGTLVTVSS
VL: EIVLTQSPATLSLSPGERATLSCSASSQVSYIHWYQQKPGQAPRPWIYETSKLASGIPARFSGSGSGTDYTLTISSLEPEDFAVYYCQQWNYPLITFGQGTKLEIKR
How did the EC50 [1] turn out when B3 was run?
The EC50 was 0.007 µg/mL.

Does B3 bind [2]?
Result: binds

What about the Kd [5] of the same binder?
Its Kd is 7.63 nM.

And the EC50 [7]?
Its EC50 is 0.02 µg/mL.

B4: humanized antibody BRHu-3 (antibody, human IgG1, kappa, V domains shown)
VH: QVQLQESGPGLVKPSETLSLTCTVSGFSLTSYGVHWIRQPPGKGLEWLGVIWAGGFTNYNSALKSRLTISKDNSKNQVSLKLSSVTAADTAVYYCARRGSSYSMDYWGQGTLVTVSS
VL: EIVLTQSPATLSLSPGERATLSCSASSNVSYIHWYQQKPGQAPRPWIYEISKLASGIPARFSGSGSGTDYTLTISSLEPEDFAVYYCQQWNYPLITFGQGTKLEIKR
notes: humanized D10, human IgG1 / kappa
B4 was tested. Which EC50 [1] did it give?
The EC50 was 0.03 µg/mL.

And the EC50 [11]?
The EC50 was 0.0818 µg/mL.

What about the Kd [5] of the same binder?
The Kd was 63.6 nM.

What about the EC50 [7] of the same binder?
The EC50 was 0.09 µg/mL.

What about the Kd [12] of the same binder?
The Kd was 32.3 nM.

Does B4 bind [13]?
Result: no binding (tested: starting from 333.33 nM)

B5: AM3-ZH3 (antibody, human IgG1, kappa, V domains shown)
VH: EVQLVESGGGLVQPGGSLRLSCAASGFTFSSYPMSWVRQAPGKGLEWVSSISTGASAYFPDSVKGRFTISRDNAKNSLYLQMNSLRAEDTAVYYCARITTSTWYMDVWGQGTTVTVSS
VL: DIQMTQSPSAMSASVGDRVTITCKASQDIYSYLSWFQQKPGKVPKTLIYRANRLVRGVPSRFSGSGSGQEYTLTISSLQPEDMATYYCLQYDEFPYTFGQGTKLEIKR
notes: human IgG1 / kappa
How did the “fold affinity against H10-hVH4-hVL4” value [14] turn out when B5 was run?
The value was 9 fold.

Does B5 bind [15]?
Result: no binding (tested: starting from 333.33 nM)

What about the EC50 [9] of the same binder?
The EC50 was 0.031 nM.

And the MFI fold [9]?
The MFI fold was 2.8 fold.

And the EC50 [10]?
The EC50 was 0.33 nM.

What about the MFI fold [10] of the same binder?
Its MFI fold is 2.5 fold.

And the Kd [16]?
The Kd was 5 nM.

What about the EC50 [17] of the same binder?
Its EC50 is 0.011 µg/mL.

And the EC50 [18]?
The EC50 was 0.0123 µg/mL.

B6: chimeric antibody ch-D10 (antibody, human IgG1, kappa, V domains shown)
VH: QVQLKESGPGLVAPSQTLSITCTVSGFSLTSYGVHWVRQPPGKGLEWLGVIWAGGFTNYNSALKSRLSISKDNSKSQVLLKMTSLQTDDTAMYYCARRGSSYSMDYWGQGTSVTVSS
VL: EIVLSQSPAITAASLGQKVTITCSASSNVSYIHWYQQRSGTSPRPWIYEISKLASGVPVRFSGSGSGTSYSLTISSMEAEDAAIYYCQQWNYPLITFGSGTKLEIQR
notes: VH/VL of murine D10 on human IgG1 / kappa constant regions
Which results are given for B6?
EC50 [11]: 0.0634 µg/mL; Kd [12]: 26.6 nM; binding result [13]: no binding (tested: starting from 333.33 nM)

From patent publication EP4696329A1 (BioRay Pharmaceutical Co., Ltd., dated 2024)
